The values that follow come from patent US20190142956A1.

Where no end group is shown, it is not given here.

The target in experiment [1] is human plasma fibronectin (human) (UniProt P02751). Kind of experiment: ITC, peptide injected into human plasma FN, PBS pH 7.4, 25 C, triplicate. Further details: ΔS: unit not given here.
For experiment [2] the target is unchanged. Kind of experiment: cell-based or functional assay.
Experiment [3] concerns the target EDA-containing cellular fibronectin made by human fibroblasts and human proximal tubular epithelial cells (human), P02751. Kind of experiment: cell-based or functional assay.

EDA-containing cellular fibronectin made by human fibroblasts and human proximal tubular epithelial cells (human), P02751, sequence (P02751 32-2477): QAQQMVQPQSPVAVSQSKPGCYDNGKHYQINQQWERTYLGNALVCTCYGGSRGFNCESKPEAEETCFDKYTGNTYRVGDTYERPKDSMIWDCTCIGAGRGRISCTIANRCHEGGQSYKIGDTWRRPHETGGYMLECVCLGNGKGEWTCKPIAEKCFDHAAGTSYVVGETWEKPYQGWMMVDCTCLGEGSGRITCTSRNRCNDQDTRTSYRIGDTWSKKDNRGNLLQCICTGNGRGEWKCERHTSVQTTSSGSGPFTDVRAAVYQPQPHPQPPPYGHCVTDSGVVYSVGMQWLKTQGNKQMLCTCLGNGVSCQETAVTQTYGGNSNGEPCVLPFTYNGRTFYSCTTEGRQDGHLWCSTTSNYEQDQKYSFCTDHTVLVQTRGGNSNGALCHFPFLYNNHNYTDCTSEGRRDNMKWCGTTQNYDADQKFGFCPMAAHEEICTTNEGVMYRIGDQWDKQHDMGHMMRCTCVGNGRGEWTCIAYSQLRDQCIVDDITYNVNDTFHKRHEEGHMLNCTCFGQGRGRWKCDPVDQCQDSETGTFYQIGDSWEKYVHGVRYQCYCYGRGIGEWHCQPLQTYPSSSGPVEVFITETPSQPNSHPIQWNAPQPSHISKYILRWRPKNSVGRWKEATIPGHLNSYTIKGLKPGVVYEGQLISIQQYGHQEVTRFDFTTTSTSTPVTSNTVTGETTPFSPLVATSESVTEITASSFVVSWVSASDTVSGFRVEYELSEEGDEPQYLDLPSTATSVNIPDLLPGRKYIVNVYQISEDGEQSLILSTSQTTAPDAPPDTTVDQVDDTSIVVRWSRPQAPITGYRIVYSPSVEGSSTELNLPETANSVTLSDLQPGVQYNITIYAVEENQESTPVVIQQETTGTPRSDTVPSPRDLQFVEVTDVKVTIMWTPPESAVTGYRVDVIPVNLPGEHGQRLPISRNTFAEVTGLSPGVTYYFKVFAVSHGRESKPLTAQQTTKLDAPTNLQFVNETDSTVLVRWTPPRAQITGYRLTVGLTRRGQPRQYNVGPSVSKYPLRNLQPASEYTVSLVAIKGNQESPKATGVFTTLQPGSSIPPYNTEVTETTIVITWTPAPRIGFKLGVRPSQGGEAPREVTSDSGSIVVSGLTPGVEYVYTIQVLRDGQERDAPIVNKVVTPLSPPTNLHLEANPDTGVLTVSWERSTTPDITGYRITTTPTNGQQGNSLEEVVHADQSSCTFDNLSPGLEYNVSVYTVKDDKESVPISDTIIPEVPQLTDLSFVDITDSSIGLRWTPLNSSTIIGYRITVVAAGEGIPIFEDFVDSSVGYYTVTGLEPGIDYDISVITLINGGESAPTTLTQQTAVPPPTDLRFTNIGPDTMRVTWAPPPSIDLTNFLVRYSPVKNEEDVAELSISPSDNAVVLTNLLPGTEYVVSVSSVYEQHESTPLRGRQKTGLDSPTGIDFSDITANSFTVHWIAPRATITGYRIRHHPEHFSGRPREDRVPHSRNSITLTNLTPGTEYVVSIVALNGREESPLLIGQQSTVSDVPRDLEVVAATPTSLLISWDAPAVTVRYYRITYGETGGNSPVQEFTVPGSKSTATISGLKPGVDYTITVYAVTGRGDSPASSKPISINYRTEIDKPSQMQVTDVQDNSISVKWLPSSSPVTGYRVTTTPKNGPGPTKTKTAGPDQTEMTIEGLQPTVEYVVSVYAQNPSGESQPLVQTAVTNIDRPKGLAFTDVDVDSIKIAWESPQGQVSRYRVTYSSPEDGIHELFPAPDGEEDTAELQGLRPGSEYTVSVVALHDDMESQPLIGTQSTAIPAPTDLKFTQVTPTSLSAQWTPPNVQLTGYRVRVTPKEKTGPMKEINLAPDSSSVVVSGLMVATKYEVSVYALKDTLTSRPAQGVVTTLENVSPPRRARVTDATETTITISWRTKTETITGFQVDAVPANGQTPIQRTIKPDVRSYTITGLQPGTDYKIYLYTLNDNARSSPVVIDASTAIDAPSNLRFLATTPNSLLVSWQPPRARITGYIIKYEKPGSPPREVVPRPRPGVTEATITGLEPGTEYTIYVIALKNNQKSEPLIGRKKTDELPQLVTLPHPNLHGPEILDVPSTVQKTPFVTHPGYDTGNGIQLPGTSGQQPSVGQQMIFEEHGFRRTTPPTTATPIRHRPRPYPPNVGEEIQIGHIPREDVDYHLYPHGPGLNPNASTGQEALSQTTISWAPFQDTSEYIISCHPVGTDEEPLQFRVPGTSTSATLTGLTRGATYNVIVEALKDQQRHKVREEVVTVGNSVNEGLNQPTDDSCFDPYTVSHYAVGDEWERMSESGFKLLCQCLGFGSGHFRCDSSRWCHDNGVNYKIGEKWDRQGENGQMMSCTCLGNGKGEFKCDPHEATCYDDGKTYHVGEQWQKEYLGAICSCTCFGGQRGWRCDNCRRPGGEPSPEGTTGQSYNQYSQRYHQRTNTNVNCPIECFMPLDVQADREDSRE

In experiment [1], 10 kDa PEG-FUD (peptide) yielded a Kd of 4.6 nM, a n of 1.55, a ΔG of -47.7 kJ/mol and a ΔH of -142 kJ/mol. In addition, the ΔS in experiment [1] is -74.

In experiment [2], 20 kDa PEG-FUD (peptide) came in with an IC50, inhibition of A488-FN fibrillogenesis of 25 to 30 nM and a percent inhibition of A488-FN fibrillogenesis, doses up to 20 µM of 60%. In experiment [1], this molecule gave a Kd of 10 nM, a n of 1.63, a ΔG of -41.8 kJ/mol and a ΔH of -126 kJ/mol. Besides, the ΔS in experiment [1] is -66.

In experiment [1], 40 kDa PEG-FUD (peptide) showed a Kd of 14.7 nM, a n of 1.43, a ΔG of -45.6 kJ/mol and a ΔH of -136 kJ/mol. The same molecule gave a ΔS in experiment [1] of -73.

Regarding “functional upstream domain (FUD) peptide”, in experiment [2], the IC50, inhibition of A488-FN fibrillogenesis was in the range of 25 to 30 nM and the percent inhibition of A488-FN fibrillogenesis, doses up to 20 µM amounted to 60%. In experiment [1], this molecule yielded a dissociation constant (Kd) of 6 nM, a n of 1.59, a ΔG of -47.7 kJ/mol and a ΔH of -130 kJ/mol. In addition, the ΔS in experiment [1] was -65.

For the molecule KDQSPLAGESGETEYITEVYGNQQNPVDIDKKLPNETGFSGNMVETEDT [functional upstream domain (FUD) peptide], the IC50, inhibition of endogenous EDA+-fibronectin fibrillogenesis (human fibroblasts and HK-2 cells) in experiment [3] was 30 nM.

{mPEG 20 kDa}-KDQSPLAGESGETEYITEVYGNQQNPVDIDKKLPNETGFSGNMVETEDT (not fully specified) [20 kDa PEG-FUD] came in with an IC50, inhibition of endogenous EDA+-fibronectin fibrillogenesis (human fibroblasts and HK-2 cells) in experiment [3] of 30 nM.
